Measured values reported in doi:10.1101/2025.07.08.663703, “Recruitment of Mre11 to recombination sites during meiosis” (bioRxiv, 2025).

Tests used:
pUC19 plasmid = assay: Gel shift assay of Mre11 and truncations; assay type: binding
Procedure: Proteins were diluted to their appropriate working concentrations in their respective storage buffers. […] Reactions were assembled at 30°C for 30 mins and resolved in a 1% agarose (SeaKem LE Agarose, Lonza) at 60 V for 120 mins at 4°C. Gels were stained with SYBR Gold Nucleic Acid Gel Stain (S11497, Invitrogen) for 40 mins and visualized with Amersham Typhoon biomolecular imager (Cytiva).

plasmid DNA (pUC19) = assay: In vitro condensation of Mre11 truncations with plasmid DNA; settings: eGFP-tagged protein, 200 nM Mre11 for ΔIDR and ΔC49
Procedure: Proteins were diluted to a 10× stock of their appropriate working concentrations in their respective storage buffers. Reactions were performed in a buffer containing 25 mM HEPES-HCl (pH 7.5), 2 mM DTT, 1 mg/ml BSA, 5% glycerol, 5 mM MgCl2, 5% PEG-3350, and NaCl. Considering the salt contributed by the protein dilution buffer, final concentration of NaCl in a reaction was adjusted to 120 mM. Unless specified otherwise, all reactions contained 400 nM ^Alexa488Mre11 or 100 nM ^eGFPMRX. A typical 20 μL binding reaction contained 2 μL protein of 10× stock of indicated concentration, 10 μL of 2× reaction buffer, and 150 ng of supercoiled pUC19 (5.7 nM). Typical reactions were assembled at 30°C for 30 mins with gentle mixing every 5 mins, unless mentioned otherwise. 5 μL was dropped onto a microscope slide and covered with a coverslip. All images were captured on a Zeiss Axio Observer with a 100×/1.4 NA oil immersion objective except for images provided in Figure 4G which were captured on Leica Stellaris DMI 8 confocal microscope with a 63x/1.2 NA water immersion objective. Images were analyzed with ImageJ using a custom-made script. […] Masked foci were counted and the intensity inside the focus mask was integrated. […] Data were analyzed using Graphpad Prism 10.4.0.

Mer2 [1] = assay: In vitro colocalization of Mre11 with Mer2 condensates; assay type: binding, S. cerevisiae; settings: 200 nM Alexa594Mer2 and eGFPMre11, assembled separately on DNA then mixed 1:1 for 30 min
Procedure: Proteins were diluted to a 10× stock of their appropriate working concentrations in their respective storage buffers. […] Unless specified otherwise, all reactions contained 400 nM ^Alexa488Mre11 or 100 nM ^eGFPMRX. A typical 20 μL binding reaction contained 2 μL protein of 10× stock of indicated concentration, 10 μL of 2× reaction buffer, and 150 ng of supercoiled pUC19 (5.7 nM). Typical reactions were assembled at 30°C for 30 mins with gentle mixing every 5 mins, unless mentioned otherwise. 5 μL was dropped onto a microscope slide and covered with a coverslip. All images were captured on a Zeiss Axio Observer with a 100×/1.4 NA oil immersion objective except for images provided in Figure 4G which were captured on Leica Stellaris DMI 8 confocal microscope with a 63x/1.2 NA water immersion objective. Images were analyzed with ImageJ using a custom-made script. In brief, 129.24 × 129.24-μm (2048 × 2048-pixel) images were thresholded to mean intensity of the background plus three times the standard deviation of the background. Masked foci were counted and the intensity inside the focus mask was integrated. Data points represent averages of at least 8–10 images per sample. Data were analyzed using Graphpad Prism 10.4.0.

Mer2 [2] = assay: Co-expression NiNTA pulldown of MBP-Mre11-C49 (prey) with HisSUMO-Mer2 (bait); assay type: binding, S. cerevisiae; settings: co-expression in E. coli, anti-MBP elution/input signal normalized to wild type, at least seven independent samples
From the text: The vector for expression of ^MBPMre11-C49 and ^HisSUMOMer2 (pCCB1040) was based on a pET-Duet1 vector with the sequence coding for ^MBPMre11-C49 cloned within the first position (SacI site) and the sequence coding for ^HisSUMOMer2 cloned at the second position (XhoI site). The EQEK mutations and LLK mutations were introduced by PCR amplification of pCCB1040 with primers cb1561 and cb1562, and pp84 and pp85, followed by phosphorylation and self-ligation to yield plasmids pry59 and pry61, respectively.
Wild-type and mutant MBP-tagged Mre11-C49 and HisSUMO-tagged Mer2 were co-expressed in 50 mL of E. coli BL21 cultures and purified by affinity chromatography on Ni-NTA resin following a procedure similar to that described above. Briefly, cells were lysed by sonication and centrifuged at maximum speed for 30 mins at 4°C on a table-top centrifuge. A small fraction of the supernatant was collected as ‘Input’ and the remainder was incubated with 120 μL Ni-NTA resin, pre-equilibrated with wash buffer (25 mM HEPES pH 7.5, 20 mM imidazole, 0.1 mM DTT, 0.1 mM PMSF, 10% glycerol), for 1 hour on a rotating wheel at 4°C. The resin was washed twice with 2 ml in batch and five times with 2 ml on column before eluting with 250 μL of 500 mM imidazole in wash buffer. […]

B1: Mre11^IDR: eGFP-tagged Mre11-IDR (524-677) (protein, UniProt P32829 524-677, looked up, fragment)
chain: NSVRPTPPKENDETNFAFNGNGLDSFRSSNREVRTGSPDITQSHVDNESRITHISQAESSKPTSKPKRVRTATKKKIPAFSDSTVISDAENELGDNNDAQDDVDIDENDIIMVSTDEEDASYGLLNGRKTKTKTRPAASTKTASRRGKGRASRT
modifications: eGFP tag
DNA binding (pUC19 plasmid; 1 nM pUC19, 25 mM HEPES pH 7.5, 5 mM EDTA, 100 mM NaCl, 30°C 30 min, two independent experiments for truncations): reduced DNA binding as compared to the WT or Mre11^ΔIDR
condensate formation in vitro (plasmid DNA (pUC19)): failed to form condensates

B2: Mre11-ΔC49: Mre11 with C-terminal 49 residues (residues 644–692) deleted (protein, UniProt P32829 1-643, looked up, fragment)
chain: MDYPDPDTIRILITTDNHVGYNENDPITGDDSWKTFHEVMMLAKNNNVDMVVQSGDLFHVNKPSKKSLYQVLKTLRLCCMGDKPCELELLSDPSQVFHYDEFTNVNYEDPNFNISIPVFGISGNHDDASGDSLLCPMDILHATGLINHFGKVIESDKIKVVPLLFQKGSTKLALYGLAAVRDERLFRTFKDGGVTFEVPTMREGEWFNLMCVHQNHTGHTNTAFLPEQFLPDFLDMVIWGHEHECIPNLVHNPIKNFDVLQPGSSVATSLCEAEAQPKYVFILDIKYGEAPKMTPIPLETIRTFKMKSISLQDVPHLRPHDKDATSKYLIEQVEEMIRDANEETKQKLADDGEGDMVAELPKPLIRLRVDYSAPSNTQSPIDYQVENPRRFSNRFVGRVANGNNVVQFYKKRSPVTRSKKSGINGTSISDRDVEKLFSESGGELEVQTLVNDLLNKMQLSLLPEVGLNEAVKKFVDKDEKTALKEFISHEISNEVGILSTNEEFLRTDDAEEMKALIKQVKRANSVRPTPPKENDETNFAFNGNGLDSFRSSNREVRTGSPDITQSHVDNESRITHISQAESSKPTSKPKRVRTATKKKIPAFSDSTVISDAENELGDNNDAQDDVDIDENDIIMVSTDEEDA
colocalization with Mer2 (Mer2 [1]): strongly reduced colocalization as compared to wild-type Mre11
species of reduced electrophoretic mobility (pUC19 plasmid; 1 nM pUC19, higher protein concentration): absent
condensate formation in vitro (plasmid DNA (pUC19)): strongly reduced Mre11 foci intensity

B3: Mre11 (protein)
chain: MDYPDPDTIRILITTDNHVGYNENDPITGDDSWKTFHEVMMLAKNNNVDMVVQSGDLFHVNKPSKKSLYQVLKTLRLCCMGDKPCELELLSDPSQVFHYDEFTNVNYEDPNFNISIPVFGISGNHDDASGDSLLCPMDILHATGLINHFGKVIESDKIKVVPLLFQKGSTKLALYGLAAVRDERLFRTFKDGGVTFEVPTMREGEWFNLMCVHQNHTGHTNTAFLPEQFLPDFLDMVIWGHEHECIPNLVHNPIKNFDVLQPGSSVATSLCEAEAQPKYVFILDIKYGEAPKMTPIPLETIRTFKMKSISLQDVPHLRPHDKDATSKYLIEQVEEMIRDANEETKQKLADDGEGDMVAELPKPLIRLRVDYSAPSNTQSPIDYQVENPRRFSNRFVGRVANGNNVVQFYKKRSPVTRSKKSGINGTSISDRDVEKLFSESGGELEVQTLVNDLLNKMQLSLLPEVGLNEAVKKFVDKDEKTALKEFISHEISNEVGILSTNEEFLRTDDAEEMKALIKQVKRANSVRPTPPKENDETNFAFNGNGLDSFRSSNREVRTGSPDITQSHVDNESRITHISQAESSKPTSKPKRVRTATKKKIPAFSDSTVISDAENELGDNNDAQDDVDIDENDIIMVSTDEEDASYGLLNGRKTKTKTRPAASTKTASRRGKGRASRTPKTDILGSLLAKKRK
modifications: left off: Gal4 activation domain (from the vector pGAD-C1), end not stated, kept
colocalization with Mer2 (Mer2 [1]): nearly absolute colocalization

B4: Mer2-EQEK: Mer2 with residues E50, Q54, E57, and K61 mutated to alanine (protein)
chain: MVARGRTDEISTDVSEANSEHSLMITETSSPFRSIFSHSGKVANAGALEASDKAILAWAGALELESMELRENSDKLIKVLNENSKTLCKSLNKFNQLLEQDAATNGNVKTLIKDLASQIENQLDKVSTAMLSKGDEKKTKSDSSYRQVLVEEISRYNSKITRHVTNKQHETEKSMRCTQEMLFNVGSQLEDVHKVLLSLSKDMHSLQTRQTALEMAFREKADHAYDRPDVSLNGTTLLHDMDEAHDKQRKKSVPPPRMMVTRSMKRRRSSSPTLSTSQNHNSEDNDDASHRLKRAARTIIPWEELRPDTLESEL
modifications: left off: His, end not stated, kept | SUMO, end not stated, kept
notes: Mer2 with residues E50, Q54, E57, and K61 mutated to alanine
interaction of Mre11-C49 and Mer2 in pulldown (anti-MBP immunoblot) (Mer2 [2]): strongly decreased the interaction between the two partners
